The results in this text go back to patent publication US20210214413A1.

The target in the assay is rhinovirus C15 virus (recombinant RV-C isolate C15, sucrose purified) (rhinovirus C15). The experiment in a line: HeLa-expressed protein recovered by α-His IP, denatured and refolded, reacted with C15 virus, α-His IP, Western blot. (In general: Immunoblotting shows a protein as a band on a membrane.)

B1: pHL-FLAG-CDHR3-His EC1-3 (1-345), HeLa-expressed (receptor)
chain: DYKDDDDKLHLILLPATGNVAENSPPGTSVHKFSVKLSASLSPVIPGFPQIVNSNPLTEAFRVNWLSGTYFEVVTTGMEQLDFETGPNIFDLQIYVKDEVGVTDLQVLTVQVTDVNEPPQFQGNLAEGLHLYIVERANPGFIYQVEAFDPEDTSRNIPLSYFLISPPKSFRMSANGTLFSTTELDFEAGHRSFHLIVEVRDSGGLKASTELQVNIVNLNDEVPRFTSPTRVYTVLEELSPGTIVANITAEDPDDEGFPSHLLYSITTVSKYFMINQLTGTIQVAQRIDRDAGELRQNPTISLEVLVKDRPYGGQENRIQITFIVEDVNDNPATCHHHHHH
Turning to B1, the Binding % after refolding, relative to the same protein not refolded came out at 213%.
